Experimental data: patent US6800470B2, “Mammalian sphingosine kinase type 2 isoforms, cloning, expression and methods of use thereof” (Sankyo Company, Ltd., priority 2000, dated 2004)
Where a chain is given by its changes, count along the chain named. Each block holds one molecule with its values, some of them ahead of it.

Assays:
[1] = substrate: CCCCCCCCCCCCC/C=C/[C@@H](O)[C@@H](N)CO; assay: SPHK activity assay with recombinant mSPHK2 (cytosol/lysates of transfected HEK293 cells, [g-32P]ATP, TLC); type: biochemical, mouse; details: other: recombinant SPHK2
Experimental: HEK293 cells were seeded at 6×10^5 per well in poly-L-lysine coated 6 well plates. […] SPHK activity was determined in the presence of sphingosine, prepared as a complex with 4 mg/ml BSA, and [g-32P] […] 32P-SPP was separated by TLC and quantified with a phosphoimager as previously described.

HEK293 cells [2] = assay: SPHK activity in HEK293 cells transiently transfected with SPHK expression vectors (cytosol and particulate fractions); type: cell-based, human; details: 24 hours after transfection of HEK293 cells
Experimental: In FIG. 3A, HEK 293 cells were transiently transfected with an empty vector or with mSPHK2 or hSPHK2 expression vectors. After 24 hours, SPHK activity was measured in cytosol (open bars) and particulate fractions (filled bars). The data are means±S.D. Parental and vector-transfected cells had basal SPHK activities of 26 and 37 pmol/min/mg, respectively.
(§1) Human embryonic kidney cells (HEK293, ATCC CRL-1573) and NIH 3T3 fibroblasts (ATCC CRL-1658) were cultured as described in Olivera, A., Kohama, T., Edsall, L. C., Nava, V., Cuvillier, O., Poulton, S., and Spiegel, S., J. Cell Biol., 147 (1999) 545-558. HEK293 cells were seeded at 6×10^5 per well in poly-L-lysine coated 6 well plates. After 24 hours, cells were transfected with 1 μg of vector alone or with vectors containing sphingosine kinase constructs and 6 μl of “Lipofectamine PLUS” reagent plus 4 μl of “Lipofectamine” reagent per well. One to three days after transfection, cells were harvested and lysed by freeze-thawing as described in Kohama, T., Olivera, A., Edsall, L., Nagiec, M. M., Dickson, R., and Spiegel, S., J. Biol. Chem., 273, (1998), 23722-23728. In some experiments, cell lysates were fractionated into cytosol and membrane fractions by centrifugation at 100,000×g for 60 minutes. SPHK activity was determined in the presence of sphingosine, prepared as a complex with 4 mg/ml BSA, and [g-32P] ATP in kinase buffer (Olivera, A. and Spiegel, S. in Methods in Molecular Biology, (Bird, I. M. ed.), (1998), Vol. 105, 233-242, Humana Press, Inc., Totowa, N.J.), containing 200 mM KCl, unless indicated otherwise. 32P-SPP was separated by TLC and quantified with a phosphoimager as previously described.

HEK293 cells [3] = assay: Mass levels of SPP in HEK293 cells after transfection with SPHK2; type: cell-based, human; details: HEK 293 cells after transfection
Experimental: Mass levels of SPP in HEK293 cells transfected with an empty vector (open bars) or with mSPHK2 (filled bars) or with hSPHK2 (hatched bars) were measured as described hereinbelow. The data are expressed as pmol/nmol phospholipid.
Cells were washed with PBS and scraped in 1 ml of methanol containing 2.5 μl concentrated HCl. Lipids were extracted by adding 2 ml chloroform/1M NaCl (1:1, v/v) and 100 μl 3N NaOH and phases separated. The basic aqueous phase containing SPP, and devoid of sphingosine, ceramide, and the majority of phospholipids, was transferred to a siliconized glass tube. The organic phase was re-extracted with 1 ml methanol/1M NaCl (1:1, v/v) plus 50 μl 3N NaOH, and the aqueous fractions were combined. Mass measurement on SPP in the aqueous phase and total phospholipids in the organic phase were measured exactly as described in Edsall, L. C., Pirianov, G. G., and Spiegel, S., J. Neurosci., 17, (1997) 6952-6960; Edsall, L. C., and Spiegel, S., Anal. Biochem., 272, (1999) 80-86).

mSPHK2 = molecular target: T1, mSPHK2 (Mus musculus, UniProt Q9JIA7); assay: SPHK activity assay with recombinant mSPHK2 (cytosol/lysates of transfected HEK293 cells, [g-32P]ATP, TLC); type: biochemical; details: cytosolic activity, kinase buffer of adjusted pH
T1 construct: The open reading frames of mSPHK2 and hSPHK2 encode polypeptides of 617 and 618 amino acids, respectively; made in house; host or cells: HEK293 (ATCC CRL-1573), transient transfection; unpurified cytosol or whole lysate
T1 sequence (Q9JIA7 1-617): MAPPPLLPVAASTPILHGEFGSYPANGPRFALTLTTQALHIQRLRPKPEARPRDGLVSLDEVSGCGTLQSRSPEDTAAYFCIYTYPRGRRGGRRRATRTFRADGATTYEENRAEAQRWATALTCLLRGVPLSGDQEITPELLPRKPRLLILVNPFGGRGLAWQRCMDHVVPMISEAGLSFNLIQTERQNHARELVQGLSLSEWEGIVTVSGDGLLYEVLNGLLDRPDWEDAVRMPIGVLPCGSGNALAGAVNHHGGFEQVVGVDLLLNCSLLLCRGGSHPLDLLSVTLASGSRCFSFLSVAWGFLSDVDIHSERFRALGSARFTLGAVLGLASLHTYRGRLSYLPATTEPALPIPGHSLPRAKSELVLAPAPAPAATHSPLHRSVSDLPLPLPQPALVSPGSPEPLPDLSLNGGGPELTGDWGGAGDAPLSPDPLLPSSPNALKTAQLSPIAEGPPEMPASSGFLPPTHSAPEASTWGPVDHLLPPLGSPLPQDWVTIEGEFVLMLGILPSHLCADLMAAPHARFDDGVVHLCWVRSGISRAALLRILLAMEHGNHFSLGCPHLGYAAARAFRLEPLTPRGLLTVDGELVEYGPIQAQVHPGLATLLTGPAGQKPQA
Experimental: Lanes: 1, D-erythro-sphingosine (“D-erythro-Sph”); 2, D-erythro-dihydrosphingosine (“D-erythro-DHS”); 3, D, L-threo-DHS; 4, N,N-dimethylsphingosine (“DMS”); 5, C2-ceramide; 6, C16-ceramide; 7, diacylglycerol; 8, phosphatidylinositol; 9, phytosphingosine. Data are expressed as percentage of phosphorylation of D-erythro-Sph.
SPHK activity in HEK293 cell lysates after transfection as in FIG. 4A was measured with 10 μM D-erythro-sphingosine in the presence of increasing concentrations of DMS.
SPHK activity was measured with varying concentrations of D-erythro-sphingosine in the absence (open circles) or presence of 10 μM (filled squares) or 20 μM DMS (filled triangles).
FIG. 4D are Lineweaver-Burk plots.
In FIGS. 5B and 5C, the SPHK activity in HEK293 cell lysates was measured 24 hours after transfection with mSPHK1 (FIG. 5B) or mSPHK2 (FIG. 5C) in the absence or presence of increasing concentrations of NaCl (open squares) or KCl (filled circles).
FIG. 5E are Lineweaver-Burk plots of data from FIG. 5D.
HEK293 cells were transfected with mSPHK1a (open circles) or mSPHK2 (filled circles) and the activities of each in cell lysates were measured after 24 hours in the presence of the indicated concentrations of Triton X-100 (FIG. 6A) or BSA (FIG. 6B).
HEK293 cells were transfected with mSPHK1a (circles) or mSPHK2 (triangles) and the activities of each in cell lysates were measured after 24 hours in the presence of the indicated concentrations of phosphatidylserine (filled symbols) or phosphatidylcholine (open symbols). Data are expressed as percentage of control activity measured without any additions.
as §1

B1: mSPHK2 (Mus musculus) (protein)
chain: T1 sequence (Q9JIA7 1-617)
notes: The open reading frames of mSPHK2 and hSPHK2 encode polypeptides of 617 and 618 amino acids, respectively; made in house; host or cells: HEK293 (ATCC CRL-1573), transient transfection; unpurified cytosol or whole lysate
Km [1]: 3.4 µM

pH of optimal activity (mSPHK2): 7.5
B2: mSPHK2: murine sphingosine kinase type 2, polypeptide of 617 amino acids (SEQ ID NO 12) (protein)
chain: T1 sequence (Q9JIA7 1-617) with N252S, P510T, L548F
increase of in vitro SPHK activity over basal levels (HEK293 cells [2]): 20 fold
increase in SPP (HEK293 cells [3]): 2.2 fold
